Laboratory results from patent US20130129719, “HER2 NUCLEIC ACID APTAMERS” (UNIVERSITY OF IOWA RESEARCH FOUNDATION, published 2013).

T1: glyoxylase (negative control protein) (Homo sapiens, UniProt Q04760 Q04760:2-184)
T1 sequence: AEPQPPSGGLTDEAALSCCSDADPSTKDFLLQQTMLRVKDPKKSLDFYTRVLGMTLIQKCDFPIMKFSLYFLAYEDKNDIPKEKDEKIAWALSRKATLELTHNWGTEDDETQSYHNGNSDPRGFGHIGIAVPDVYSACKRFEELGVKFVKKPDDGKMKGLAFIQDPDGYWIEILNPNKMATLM

B1: D1 (ssRNA)
RNA: GGGAGGACGAUGCGGAUGUAUGUUGGGAGCCACGCCAGACGACUCGCCCGA
B2: C1 (ssRNA)
RNA: GGGAGGACGAUGCGGCUGUCUACCUUCUACUGCCGCAGACGACUCGCCCGA
B3: E1 (ssRNA)
RNA: GGGAGGACGAUGCGGUCCUGUCGUCUGUUCGUCCCCAGACGACUCGCCCGA
B4: A2 (ssRNA)
RNA: GGGAGGACGAUGCGGGACUGUAUGGGGCUCUGUGCAGACGACUCGCCCGA
B5: B1 (ssRNA)
RNA: GGGAGGACGAUGCGGUCUGUUGUGCUUGAUAUGCCCCAGACGACUCGCCCGA

Assays:
[1] = target: T1, glyoxylase (negative control protein); experiment: FP; specificity control, room temperature; conditions: tags: His-tag; label: 5'-FAM
Experimental: (§1) FIG. 3. Binding of HER2-aptamers to recombinant HER2-ECD protein. RNA aptamers labeled with FAM at the 5′ end were incubated with recombinant rat HER2-ECD protein in increasing concentrations up to 1 μM at room temperature for 30 minutes in 100 μL reaction volumes. A non-target protein (glyoxylase) is used as a negative control in these assays (Control protein). The binding reaction is performed in the buffer in which the selection was performed. Fluorescence polarization (FP) values for each RNA concentration are read using an Analyst HT plate reader by LJL Biosystems. FP is given by P=(V−H)/(V+H), where V is the vertical component of polarized light, and H is the horizontal component of polarized light. Values of polarization range from 0 to 500 mP, with 0 mP being no binding of the RNA and 500 mP representing maximal binding. The curve is fit with a one-site binding model using non-linear regression software. This confirms the binding of the HER2 aptamers to […] HER2 using Fluorescence Polarization. […] This experiment was done several times and was reproducible.
(§2) The inventors next verified that several of the internalizing aptamers were binding specifically to HER2 using fluorescence polarization (FP). This was done by measuring binding of the RNAs to recombinant purified rat HER2-ECD (extra cellular domain) (FIG. 3). […] A control protein (human glyoxylase) was used as a negative control for binding in these studies.

[2] = target: HER2 extracellular domain (HER2-ECD) (Rattus norvegicus, UniProt P06494 P06494:23-654); experiment: FP; selection buffer, room temperature 30 min, protein up to 1 uM; conditions: label: 5'-FAM
Chain of HER2 extracellular domain (HER2-ECD) (P06494 23-654, one chain of several): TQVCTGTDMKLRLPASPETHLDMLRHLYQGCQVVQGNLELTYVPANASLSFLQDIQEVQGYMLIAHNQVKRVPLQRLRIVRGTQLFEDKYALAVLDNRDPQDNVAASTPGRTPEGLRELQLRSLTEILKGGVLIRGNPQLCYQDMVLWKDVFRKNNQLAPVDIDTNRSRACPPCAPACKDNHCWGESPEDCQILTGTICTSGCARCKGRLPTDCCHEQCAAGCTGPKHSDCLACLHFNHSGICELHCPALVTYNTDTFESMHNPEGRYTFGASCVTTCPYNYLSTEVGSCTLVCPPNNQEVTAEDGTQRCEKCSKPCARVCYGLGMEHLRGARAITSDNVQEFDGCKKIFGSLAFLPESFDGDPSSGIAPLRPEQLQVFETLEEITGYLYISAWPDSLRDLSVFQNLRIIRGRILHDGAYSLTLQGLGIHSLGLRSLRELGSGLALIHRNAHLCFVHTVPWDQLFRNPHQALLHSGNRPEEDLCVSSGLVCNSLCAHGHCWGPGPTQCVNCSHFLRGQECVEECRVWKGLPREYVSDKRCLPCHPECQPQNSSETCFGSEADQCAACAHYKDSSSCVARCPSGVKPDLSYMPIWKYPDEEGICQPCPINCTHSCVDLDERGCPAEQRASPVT
Experimental: as §1, §2

Row | Binder | binding result [1] | binding result [2]
1 | B1 | no binding | binds
2 | B2 | no binding | binds
3 | B3 | no binding | binds
4 | B4 | no binding | binds
5 | B5 | no binding | binds
